Measured values from paper PMC7360965.

Biological target: F-actin (filamentous actin), actin purified from chicken breast (Gallus gallus) (chicken (Gallus gallus)), P68139
Assay: co-sedimentation
Settings: remark: other sources report otherwise

Kd: 1.8 µM
B1: Human UTRN-ABD (utrophin actin-binding domain, amino acids 1-261), wild type, P46939 1-261 (domain or fragment)
chain: MAKYGEHEASPDNGQNEFSDIIKSRSDEHNDVQKKTFTKWINARFSKSGKPPINDMFTDLKDGRKLLDLLEGLTGTSLPKERGSTRVHALNNVNRVLQVLHQNNVELVNIGGTDIVDGNHKLTLGLLWSIILHWQVKDVMKDVMSDLQQTNSEKILLSWVRQTTRPYSQVNVLNFTTSWTDGLAFNAVLHRHKPDLFSWDKVVKMSPIERLEHAFSKAQTYLGIEKLLDPEDVAVQLPDKKSIIMYLTSLFEVLPQQVTID
